Measured values as given in patent US20220064294A1 (ARCUS BIOSCIENCES, published 2022).

How the values were obtained:
cTIGIT-His = molecular target: T1, cTIGIT-His (cynomolgus monkey); experiment: SPR, Biacore 8K, Fab-SASA supernatant captured on BSA chip, cTIGIT-His as analyte
T1 construct: also called His-tagged cyno TIGIT protein extracellular domain; soluble cTIGIT-His
T1 chain: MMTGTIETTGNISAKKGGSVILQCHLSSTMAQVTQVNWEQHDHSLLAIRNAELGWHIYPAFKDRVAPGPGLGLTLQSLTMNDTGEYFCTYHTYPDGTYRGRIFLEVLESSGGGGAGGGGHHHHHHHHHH
From the text: (§1) Oligonucleotides were designed and synthesized as Fab fragments with human IgG1/kappa constant domains for the two VH and two VL grafted human acceptors and inserted into a vector system for high throughput screening of expression levels and biophysical properties, without the need for protein purification (Zhang & Hirama, Patent Application Publication US 2012/0178110). All four combinations of VH1 (SEQ ID NO: 76) or VH2 (SEQ ID NO: 78) with VL1 (SEQ ID NO: 79) or VL2 (SEQ ID NO: 77) (FIGS. 1J-1M) were screened along with a chimera Fab mVH+mVL constructed from the mouse 24F8VH (SEQ ID NO: 5) & 24F8VL (SEQ ID NO: 6) domains and human IgG1/kappa Fab constant domains. Supernatants of the Fabs, secreted as a SASA (single-domain antibody against serum albumin) fusion proteins were analyzed by surface plasmon resonance (SPR) using a Biacore 8K instrument with Fab capture using an BSA coated chip and soluble His-tagged TIGIT as the analyte. The kinetic binding data for human and cyno TIGIT are shown in Table 9 for the five Fab fragments.

hTIGIT-His = molecular target: T2, hTIGIT-His (human); experiment: SPR, Biacore 8K, Fab-SASA supernatant captured on BSA chip, hTIGIT-His as analyte
T2 construct: also called His-tagged human TIGIT protein extracellular domain; soluble hTIGIT-His
T2 chain: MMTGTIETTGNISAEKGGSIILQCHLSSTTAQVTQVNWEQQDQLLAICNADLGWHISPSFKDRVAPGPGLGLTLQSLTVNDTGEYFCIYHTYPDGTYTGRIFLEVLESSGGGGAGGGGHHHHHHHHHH
From the text: as §1

[1] = molecular target: T3, cynomolgus monkey TIGIT, full length, on cells (cynomolgus monkey); experiment: flow cytometry on CHO-K1 cells expressing cyno TIGIT
T3 construct: Whole entry of 312 amino acids; also called cyno TIGIT; cTIGIT
Description: (§2) These clones were further expanded, and antibodies were purified using a Protein G column. These purified antibodies were tested for binding to human and cyno TIGIT expressed on cell surface by flow cytometry. Stable CHO-K1 cell lines expressing full length human TIGIT clone 2A7 (Swiss-Prot Q495A1; SEQ ID NO: 80) or full length cyno TIGIT clone C10 (Swiss-Prot A0A2K5UW92; SEQ ID NO: 84) were developed. For the flow assay, cells were collected and incubated in 100 μL of HBSS buffer in the presence (or absence) of various concentrations of antibodies for 1 hr at 4° C. After washing with HBSS, antibody binding on cells was detected with 2 μg/mL of Alexa488-labeled goat anti-mouse IgG antibody (ThermoFisher Scientific, Cat #A-11001) for 30 min at 4° C. Cells were then washed and resuspended in PBS and subjected to flow cytometry using an Attune NxT flow cytometer (ThermoFisher Scientific, Waltham, Mass.). The geometric mean of the fluorescence intensity was obtained for the whole single cell population. Antibodies capable of binding to both human and cyno TIGIT expressed on cell surface were further tested for their blocking activity against recombinant human CD155 binding to human TIGIT on the surface of CHO cells. CHO-hTIGIT cells (10⁵ cells) were incubated with 2.5 μg/mL hCD155-Fc protein in the presence of various concentrations of antibody at room temperature for 1 hr. […] Cells were then washed and subjected to flow cytometry analysis.

[2] = molecular target: T4, human TIGIT, full length, on cells (human, UniProt Q495A1 22-244); experiment: flow cytometry on CHO-K1 cells expressing human TIGIT
T4 construct: also called hTIGIT; hTIGIT-CHO
T4 sequence: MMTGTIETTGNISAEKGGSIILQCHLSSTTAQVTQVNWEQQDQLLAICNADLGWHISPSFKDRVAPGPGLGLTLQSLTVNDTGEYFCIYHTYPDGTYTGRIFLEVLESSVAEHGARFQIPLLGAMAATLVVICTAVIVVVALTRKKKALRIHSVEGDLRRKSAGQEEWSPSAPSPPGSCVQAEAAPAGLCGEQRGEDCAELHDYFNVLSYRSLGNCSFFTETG
Description: as §2

[3] = molecular target: T4, human TIGIT, full length, on cells; experiment: flow cytometry, inhibition of hCD155-Fc binding to CHO-hTIGIT cells
Description: as §2

Binder | Kd (cTIGIT-His) | koff (cTIGIT-His) | kon (cTIGIT-His) | Kd (hTIGIT-His) | koff (hTIGIT-His) | kon (hTIGIT-His) | EC50 [1] | EC50 [2] | IC50 [3]
chimera Fab mVH+mVL (mouse 24F8VH and 24F8VL with human IgG1/kappa Fab constant domains) (Fab, V domains shown, also called mouse/human chimera Fab) VH: DVQLQESGPDLVKPSQSLSLTCTVTGYSITSGYSWHWIRQFPGNKLDWMGYVHYSGSTNYNPSLKSRISITRDTSKNQFFLQLNSVTTEDTATFYCARMDYGNYGGAMDYWGQGTSVTVSS VL: EIVMTQSHKFMSTSVGDRVSITCKASQDVRTAVAWYQQKPGQSPKLLIYSASYRYTGVPDRFTGSGSGTDFTFTISSVQAEDLAVYYCQQYYSTQWTFGGGTKLEIK | 0.474 nM | 0.000728 s⁻¹ | 1.54e+06 M⁻¹ s⁻¹ | 0.00127 nM | 2.37e-06 s⁻¹ | 1.86e+06 M⁻¹ s⁻¹ | – | – | –
21F8 (antibody, V domains shown, Mouse monoclonal antibody purified from hybridoma on Protein G; also called mAb 21F8; mouse anti-TIGIT clone 21F8) VH: DVQLQESGPGLVKPSQSLSLTCTVTGYSITSDYAWNWIRQFPGNKLEWMGYISYSGSTSYNPSLKSRISITRDTSKNQFFLQLNSVTTEDTATYYCARFMITTFAMDYWGQGTAVTVSS VL: DIVMTQSHKFMSTSVGDRVSITCKASQHVSTAVAWYQQKPGQSPKLLIYSAPYRYTGVPDRFTGSGSGTDFTFTISSVQAEDLAVYYCQQHYNTLWTFGGGTKLEIK | – | – | – | – | – | – | 1.79 nM | 0.952 nM | 1.67 nM
Hu24F8.1 Fab (Fab, V domains shown, Fab with human IgG1/kappa constant domains, secreted as a SASA fusion protein and tested as supernatant; also called VH1 + VL2) VH: QVQLQESGPGLVKPSETLSLTCAVYGYSITSGYSWHWIRQPPGKGLEWIGYVHYSGSTNYNPSLKSRVTISVDTSKNQFSLKLSSVTAADTAVYYCARMDYGNYGGAMDYWGQGTLVTVSS VL: EIVMTQSPATLSVSPGERATLSCKASQDVRTAVAWYQQKPGQAPRLLIYSASYRYTGIPARFSGSGSGTEFTLTISSLQSEDFAVYYCQQYYSTQWTFGGGTKVEIK | 1.26 nM | 0.0014 s⁻¹ | 1.11e+06 M⁻¹ s⁻¹ | 0.0361 nM | 0.000111 s⁻¹ | 3.08e+06 M⁻¹ s⁻¹ | – | – | –
Hu24F8.3 Fab (Fab, V domains shown, Fab with human IgG1/kappa constant domains, secreted as a SASA fusion protein and tested as supernatant; also called VH2 + VL1) VH: QVQLQESGPGLVKPSGTLSLTCAVSGYSITSGYSWHWVRQPPGKGLEWIGYVHYSGSTNYNPSLKSRVTISVDKSKNQFSLKLSSVTAADTAVYYCARMDYGNYGGAMDYWGQGTLVTVSS VL: DIQMTQSPSSLSASVGDRVTITCKASQDVRTAVAWYQQKPGKAPKLLIYSASYRYTGVPSRFSGSGSGTDFTFTISSLQPEDIATYYCQQYYSTQWTFGGGTKLEIK | 6 nM | 0.00585 s⁻¹ | 974000 M⁻¹ s⁻¹ | 0.242 nM | 0.000481 s⁻¹ | 1.99e+06 M⁻¹ s⁻¹ | – | – | –
Hu24F8.4 Fab (Fab, V domains shown, Fab with human IgG1/kappa constant domains, secreted as a SASA fusion protein and tested as supernatant; also called VH1 + VL1) VH: QVQLQESGPGLVKPSETLSLTCAVYGYSITSGYSWHWIRQPPGKGLEWIGYVHYSGSTNYNPSLKSRVTISVDTSKNQFSLKLSSVTAADTAVYYCARMDYGNYGGAMDYWGQGTLVTVSS VL: DIQMTQSPSSLSASVGDRVTITCKASQDVRTAVAWYQQKPGKAPKLLIYSASYRYTGVPSRFSGSGSGTDFTFTISSLQPEDIATYYCQQYYSTQWTFGGGTKLEIK | 9.81 nM | 0.0133 s⁻¹ | 1.35e+06 M⁻¹ s⁻¹ | 0.28 nM | 0.000855 s⁻¹ | 3.05e+06 M⁻¹ s⁻¹ | – | – | –
Hu24F8.2 Fab (Fab, V domains shown, Fab with human IgG1/kappa constant domains, secreted as a SASA fusion protein and tested as supernatant; Not the same preparation as Fab24F8 (papain fragment); also called VH2 + VL2) VH: QVQLQESGPGLVKPSGTLSLTCAVSGYSITSGYSWHWVRQPPGKGLEWIGYVHYSGSTNYNPSLKSRVTISVDKSKNQFSLKLSSVTAADTAVYYCARMDYGNYGGAMDYWGQGTLVTVSS VL: EIVMTQSPATLSVSPGERATLSCKASQDVRTAVAWYQQKPGQAPRLLIYSASYRYTGIPARFSGSGSGTEFTLTISSLQSEDFAVYYCQQYYSTQWTFGGGTKVEIK | 1.09 nM | 0.000808 s⁻¹ | 742000 M⁻¹ s⁻¹ | 0.045 nM | 9.39e-05 s⁻¹ | 2.08e+06 M⁻¹ s⁻¹ | – | – | –
22B22 (antibody, V domains shown, Mouse monoclonal antibody purified from hybridoma on Protein G; also called mAb 22B22; mouse anti-TIGIT clone 22B22) VH: EVQLVESGGGLVKPGGSLKLSCAASGFTFSSYAMSWVRQSPEKRLEWVAEISSGGSYTYYPDTVTGRFTISRDNAKNTLYLEMSSLRSEDTAMYYCARKRRDYYAMDYWGQGTSVTVSS VL: DVQITQSPSYLAASPGETITINCRASKSISKYLAWYQEKPGKTNKLLIYSGSTLQSGIPSRFSGSGSGTDFTLTISSLEPEDFAMYYCQQHNEYPWTFGGGTKLEIK | – | – | – | – | – | – | 0.58 nM | 0.507 nM | 0.83 nM
28P24 (antibody, V domains shown, Mouse monoclonal antibody purified from hybridoma on Protein G; also called mAb 28P24; mouse anti-TIGIT clone 28P24) VH: QVQLQQSGAELVRPGTSVKMSCKAAGYTFTNYFIGWVKQRPGHGLDWIGDIYPGGGYTNYNEKFKGKATLTADTSSSTAYMQLSSLTSEDSAIYYCVRFYGNYVFAYWGQGTLVTVSA VL: DVQITQSPSCLAASPGETITINCRASKTISKYLAWYQEKPGKTNKLLIYSGSTLQSGIPSRFSGSGSGTDFTLTISSLEPEDFAMYYCQQHNEYPWTFGGGTKLEIK | – | – | – | – | – | – | 1.26 nM | 0.466 nM | 1.7 nM
21B9 (antibody, V domains shown, Mouse monoclonal antibody purified from hybridoma on Protein G; also called mAb 21B9; mouse anti-TIGIT clone 21B9) VH: EVQLVESGGGLVKPGGSLKLSCTASGFTFSSYAMSWVRQSPEKRLEWVAEISSGGSYTYYTDTVTGRFTISRDNAKNTLYLEMSSLRSEDTAMYYCARKRRDYYGMDYWGQGTSVTVSS VL: DVQITQSPSYLAASPGETITINCRASKSISKYLAWYQEKPGKTNKLLIYSGSTLQTGIPSRFSGSGSGTDFTLTISSLEPEDFAMYYCQQHNEYPWTFGGGTKLEIK | – | – | – | – | – | – | 0.631 nM | 0.506 nM | 1.66 nM
28O12 (antibody, V domains shown, Mouse monoclonal antibody purified from hybridoma on Protein G; also called mAb 28O12; mouse anti-TIGIT clone 28O12) VH: EVQLVESGGGLVKPGGSLKLSCAASGFTFSNYAMSWVRQSPEKRLEWVAEISGGGSYTYHPDTVTGRFTISRDNAKNTLYLEMSSLRSEDTAMYYCARKRRDYYAMDYWGQGTSVTVSS VL: DVQITQSPSYLAASPGETITINCRASKSISKYLAWYQEKPGKTNKLLIYSGSTLQSGIPSRFSGSGSGTDFTLTISSLEPEDFAMYYCQQHNEYPWTFGGGTKLEIK | – | – | – | – | – | – | 0.71 nM | 0.638 nM | 1.16 nM
21B16 (antibody, V domains shown, Mouse monoclonal antibody purified from hybridoma on Protein G; also called mAb 21B16; mouse anti-TIGIT clone 21B16) VH: EVQLVESGGGLVKPGGSLKLSCAASGFTFSTYAMSWVRQSPEKRLEWVAEISSGGTYTYFPDTVTGRFTISRDNAKNTLYLEMSSLRSEDTAMYYCARKRRDYYAMDYWGQGTSVTVSS VL: DVQITQSPSYLAASPGETITINCRASKSISKYLAWYQEKPGKTNKLLIYSGSTLQSGIPSRFSGSGSGTDFTLTISSLEPEDFAVYYCQQHNEYPWTFGGGTKLEIK | – | – | – | – | – | – | 1.2 nM | 0.498 nM | 1.15 nM
5J24 (antibody, V domains shown, Mouse monoclonal antibody purified from hybridoma on Protein G; also called mAb 5J24; mouse anti-TIGIT clone 5J24) VH: QVQLQQSGAELVRPGTSVKMSCKAAGYTFTNHWIGWVKQRPGHGLEWIGDIYPGGGYTNYNEKFKGKATLTADTSSSTAYMYLSSLTSEDSAIYYCARSYGYDLYAMDYWGQGTSVTVSS VL: DIQMTQSPSSLSASLGERVSLTCRASQEISGYLSWLQQKPDGTIKRLIYAASTLGSGVPKRFSGSRSGSDYSLTISSLESEDFADYYCLQYDSYPFTFGAGTKLELK | – | – | – | – | – | – | 1.63 nM | 0.704 nM | 1.46 nM
